A short description of the data set: soluble on expression in E. coli; label from the status in PepcDB or PDB records.
On to “MSLGYAFPSILGNLMSKIYQMDAVDWLKTLENCSVDLFITDPPYESLEKYRQIGTTTRLKESKSSSNQWFSVFPNTRFEELFREVYRVLKKGSHFYLFCDQETMFLAKPIAESVGFKFWKPIVWDKCAIGMGYHYRARYEFILFFEKGKRKLNDLSVPDVLEYKRVWKGYPTEKPVELLEVLIRQSSSENEIVADSFFGSGSTLIAANNLSRKYIGCDISSSAHEYFKNRAEGHHHHHH”, for which the “soluble on expression in E. coli” value is listed as “soluble”.

Take “MGSDKIHHHHHHMPINSFENYPMNWKPKRPSKGQILYKALAEQLEQDINNGFLLPGTKLPPQRELADFLDVNVSTISRAFKICEKKGLISGVTGSGTFVSYDTRSNLFLMSSNNKITFIEMGTMNPDFTLEEMNTLFKHIIKEIDFKTIFQYGQRDGAKWQKEAIAKLIYKAGLETTSDSLLPASGGQNAIVAILAGLFQHGDRIGVDPLTYPGIKTAAKMLGIQLIPIKQEDNEISEEGLLYACKNENIKGLYIIPDYQNPTTHIMSQNGRKMIANIASKYNLIVIEDAIHSLLNETHLNPVASYLPNQTIYITSLSKIIAPSLRLAYISTPKQYREALSSALYNINLSQSYFLTEIAYRMITSGEADKLINARRKSARRRNKIINQYLSGYNLLGNEECIFRWLILPDGIMAEKFEIQALKEGVQVYASERFAVGKEKPISAIRIAVCATESTEELKAGLSVLKRLLEEKK”: the “soluble on expression in E. coli” value is listed as “not soluble”.

In the case of “ITKAINYMAKRRIGALLTIERDTGMGDYIETGIPLNAKVSSELLINIFIPNTPLHDGAVIMKNNEIAAAACYLPLSESPFISKELGTRHRAAVGISEVTDSLTIIVSEETGGVSVAKNGD”, the “soluble on expression in E. coli” value is “not soluble”.

As to “MGHHHHHHENLYFQSHLYFQSHERLSEKKIKNLLTSKQQRQQYEIKQRSMLRHLAELRRHSRFRRLCTKPASSSMPASTSSVDRRTTRRSTSQTSLSPSNSSGYGSVFGCEEHDVDKIPSLNGFAKLKRRRSSCVGAPTPNSKRSKNNMGVIAKRPPKGEYVVERIECVEMD”, the “soluble on expression in E. coli” value is “not soluble”.

On to “MGSDKIHHHHHHMKAQEVPSTTFTGGETVLTFKGGVHPPELKEWSKDKPIERAPLPQKVFVFLSNHAGNPAKPVVSPGDEVKTGQVIGEPEGFISAYLHSPVTGRVLEIKKILHPILGKPIEAIVIERTSDDEWVHIETGDFERMSKEEILEIIKKAGIVGLGGAMFPTHVKLSPPPEKKVDTLIVNGAECEPVLTIDHRLMLERAEDILQGILIMMKVLGVQKAVVGVESNKMDAYHNLKKVFKGYPVDVALLRTKYPQGAEKQLIYAITGRMVPRGGLPMDVGVVVQNVGTCVAVKEAVVDGKPLVERGMTVSGDAVKNQKNLIVRIGTPVKDVIDYCGGIDENTERVILGGPMMGISITNLDIPVMKGTSGITAFLPKKSRPQKPCIRCSECVQVCPMNLQPYLLYLLSTKRKYDEAVENGLMDCIECGSCTYTCPSKIEHVRYIKLAKTVYRATRRGRR”, for which the “soluble on expression in E. coli” value is reported as “not soluble”.

In the case of “MERIAFVYMGGDEFKWLFFEVYDRVRRFMKDVNLGIIPIYAGKIKLPPGMLVRVNAGNGYIKMYPFEAVVEALYGKLVEMRDDVKDDTLTKIFGITTFPIGSRKQYFDIYKKYLGIQVSIGNYNVLALSIKPFYTENRELFVERVFKGVLHEIGHLYGLSHCKNDCVMNPPNDLKDWDRRAPSYCNSCLRELKRKVKPMPLLLHRAYECFHC”, the “soluble on expression in E. coli” value is “not soluble”.

“MADHSIQGKVALIAGGAKNLGGLIARDLAAHGARAIAIHYNSPASKADADATVAALQAAGAQAVALQGDLTTAAAVEKLYADALAAVGRPDIAINTVGKVLKKPFSEISEAEYDEMAAVNAKSAFFFLKEAGRHVNDHGKIVTLVTSLLGAFTPFYSAYAGTKAPVEHYTRAAAKEFGARGISVTAVGPGPMDTPFFYGQESPEAVAYHQSAAALSPHSPTGLTHIEDVVPFIRHLVSDGWWITGQTLLINGGYTTK”: the “soluble on expression in E. coli” value was “not soluble”.

“MKRKESAFKSMLKQAAPPIELDAVWEDIRERFVKEPAFEDITLESERKRIFKDFMHVLEHECQH”: the “soluble on expression in E. coli” value is “soluble”.

For “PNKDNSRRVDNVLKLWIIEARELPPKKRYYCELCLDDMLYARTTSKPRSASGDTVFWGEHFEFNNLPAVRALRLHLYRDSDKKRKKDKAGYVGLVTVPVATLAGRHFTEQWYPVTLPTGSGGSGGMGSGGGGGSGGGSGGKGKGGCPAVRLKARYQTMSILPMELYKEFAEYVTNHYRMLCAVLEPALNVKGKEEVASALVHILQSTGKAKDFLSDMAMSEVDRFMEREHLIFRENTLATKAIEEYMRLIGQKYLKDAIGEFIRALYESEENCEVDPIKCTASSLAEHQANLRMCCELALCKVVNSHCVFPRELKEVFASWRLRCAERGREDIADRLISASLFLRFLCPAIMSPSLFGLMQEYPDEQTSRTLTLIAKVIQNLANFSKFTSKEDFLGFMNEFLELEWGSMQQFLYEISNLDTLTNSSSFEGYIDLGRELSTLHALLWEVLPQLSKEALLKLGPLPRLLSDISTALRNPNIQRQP”, the “soluble on expression in E. coli” value was “soluble”.

For “MGSDKIHHHHHHMNDSATQLTSTGSLTLRHLEAVTMDKAPTFTVKRIAFDEHYLPAENTRITTNFANLARGANRQQNLRNTLTMINNRFNALAHWDNPEHDRYRVELDIISVEMNLESAQYGNALPLIEILKTYIVDRKNNTRLEGMVGNNFSSYVRDYDFSVLLLEHNKHRSTFSTPDHFGELHGNLFKCFVNSQTYQEHFSKPPVICLSVSSSRTYLRTENQHPVLGVEYQQDEYSLTDEYFKKMGLTVRYFMPPNSVAPLAFYFAGDLLADYTDLELISTISTMDTFQKIYRPEIYNANSPAGKAYQPSLKNQDYSLTRIVYDREERSRLAIEQGKFAEEQFVKPYQATLAQWSAQYAR”, the “soluble on expression in E. coli” value is on record as “not soluble”.

Consider “MGSDKIHHHHHHMLRGGAPAVRMNAMKIISVNVGQPTALQVGQRTAVSGIRKHPVPGRVQVGEKGLEGDHVLNRRYHGGPDQAVYVYTREDYDHWTELLGRALEPGAFGENVLISGAESAEVRVGERFLLGAVEIEVTAPRLPCSTLGARMEDAGFVKRFKAARRPGFYARVLQSGDIGRGDPVTRTPAPDGAPTIGELFDADFAKSHDPAELRAWLTFPLGKRQRKEVEKWLAKAEG”, for which the “soluble on expression in E. coli” value is recorded as “not soluble”.

On to “MKQKIVLATGNKGKVKEMADVLSDFGFEVIAQTDLGIESPEETGLTFVENALLKARYASEKSGLPAIADDSGLVVSALNGAPGLYSARYAGEEGNDAKNREKLLAELAHIAQEQRQAKFVSCIVFLQHPTDPSPIIAEGECCGVIGFEEKGENGFGYDSLFFSPEQGCTFAELETAEKKKISHRAKALSVLKSKL”, for which the “soluble on expression in E. coli” value is listed as “not soluble”.

Take “MGSDKIHHHHHHMKFLDVNQHLSELDEHIKVLKSYGDVFEAVEARITRVINMDGAFKGEGAKGVIYNHTHMQLPTIRSIRAFLISFSDTLEKMKANITEYEPASNGSVSENFWKNQLPKAYDRYEETLEEREATINQATAQVSHILHLGKLQTGDLYNSVDSARKHADTVLEGLYDLDQAGVELMAQVRTKMEELKATIRQVLDWNMTGGVTMKGVSIMEIGGYFANNATLHEKAPEVKVELLDLNPLVQYANDFPLRFKYDTMHSINESI”: the “soluble on expression in E. coli” value is “not soluble”.

For the sequence “MEANKYKIGIIGSRDIILPFSMIGFDIFPAYQEQEAINTLRKLAQSDYGVIYITEDIASMILDTIRHYDSQVVPAIILLPTHKQGLNLGLKRIEDNVEKAVGHNILLEHHHHHH”, the “soluble on expression in E. coli” value is recorded as “not soluble”.

In the case of “MSLKQAMGYLRQSTTKQQSLAAQKQTIKVLAEKHNIQHITFYSDKQSGRTDKRNGYQQITELIQQGQCDVLCCYRLNRLHRNLKNALKLMKLCQTYHVHILSVRDGYFDMNKAFDRLKLNIFISLAELESDNIGEQVKNGLREKAKQGKLITTHAPFGYHYHNGTFTIDTVKSPTVKAVFNYYLQGYGYKKIAQYLEADNKFINRKPYQVRNIILNPNEGHHHHHH”, the “soluble on expression in E. coli” value was “not soluble”.

“MTNFQRARSEEQRAVRRQAILDTTAAMLEEMPVGEVSLNELSRRVGLAKSNVLRYFESREAILLELLDRAWQQWVADLPALVHAGVDQGAPVSRRAEQFAAVIAASLAGRQVLCDLLSAQAGVLEHNVSPQVAARYKRAAVANVADIAALAHQHLPELGASAPQLTAVMIMAVGAVWTHARPSPAMLSAYEADPSLTAFKLDFVTTLQEMLATLTAGTIARESA”: the “soluble on expression in E. coli” value is “not soluble”.

With “GGFDGHTHSAGKINVGRFINPNDARKNPVPGLSGQVARTEKTRAQVGYNTPNTYAIGYRYAKLGYTTICEAAIPLLAARHTHEEFKEIPILDKMGLSLFGSNWQVMEYIRDKEPEKLAAYIAWGLKASRGYGVKIVNPGGGEAWGWGRNVSGLYDPVPNFDVTPAEILLGLAEANERLQLPHSIHVHCNNLGKPGNYATTIETMKLLEKVKPSRDRQALHVTHVQFNAYAGTSWRDFETGAPMVADYINGANHLTFDLGQVIFGPAVTMTADGPVEYANSRMLHEKWSNQDIELEDASGVVPLFYSPKSFVNAVQWAIGLELALLVKDPWKVMFTTDSPNGGSFVNYPEAFTYLMSAKRREEVISGFSKMALDRMVLPGIDRELDFYELAVMTRSTQSKMYSMPEKGNLKVGSDADIAIYDILPGQVDPSTEYAKVKKAFSAASYTLKSGEVVVKDG”, the “soluble on expression in E. coli” value is given as “not soluble”.

In the case of “MGSDKIHHHHHHMADNKIIQHVYIVGSKGIPANYGGFETFVEKLTAGQENRQIKYHVASRFDNSEQAGKKQRFEYNGADVFSIDVPNIGSAQAIVYDYKALKEAIRISKQNQDKHPIFYVLANRIGPFAKHFAKEIHALGGRFYLNPDGHEWARAKWPKPVRKYWKYSEKKMVAAADLIIADNPEIEKYIKKEYSSFHPQTTYIAYGTDVQRSKLTMKDQKVRDWFKQKRITENNYFLVVGRFVPENNYETMIREFMTSRTKKDFVLVTNVEKNRFYERLKQRTHFDQDPRIKFVGTVYDQELLKYIRENAFAYFHGHEVGGTNPSLLEALSMTRLNMLIDVPFNRAVAKEGAMYWNKAIGNLTAQINQTETYDKKRIIDYTQAARKRVTDEFTWESIIAKYEELFVS”, the “soluble on expression in E. coli” value is listed as “not soluble”.

Take “MNIRQAKTSDAAAIAPLFNQYREFYRQASDLQGAEAFLKARLENHESVILIAEENGEFIGFTQLYPTFSSVSMKRIYILNDLFVVPHARTKGAGGRLLSAAKDYAGQNGAKCLTLQTEHHNRKARSLYEQNGYEEDTGFVHYCLNVPAK”: the “soluble on expression in E. coli” value is recorded as “soluble”.

Consider “MMKEFTPAPDSASIVSVTDRVKPVALGMGVTSVHFLGDRAAFVGGEENVAFVDSQGEITTVAVHGGGILSTASDGKRLVMGGDDGKVVSLDAKGEVTLLATDPKRRWIDAVALHADGAFAWSAGKTATVKSGKTEEKSLEVPSTVGGLAFAPKGLRLAIAHYNGATLWFPNMAASAEFLPWAGSHHAVTFSPDNKFLVTAMHEPALHGWRLADNRHMRMTGYPGRVRSMSWSAGGKALATSGADTVILWPFGSKDGPMGKEPAMLAPLQARVSVVACHPKNDILAAGYSDGTVLMVRLEDGAEILVRRNGTPPVAALAWNAKGTLLAFADENGDGGLLELLEHHHHHH”, for which the “soluble on expression in E. coli” value is “soluble”.

As to “MQAAKVDTLSVHSDAMNKEVQVITICPDKAMAGEKCPVLYLLHGYGGNAGTWLGIKPELPRIADKEGIIFVCPDGKNSWYWDSPLNKEYRYETFVSKELVNYIDKNFTTKAERGGRAVTGLSMGGHGSLWLSIRHKDVFGGGGSMSGGLDIRPFPNNWEMKKQLGEEASNKQRWDEHTVINQLDKIKNGDLAVIIDCGCDDFFLEVNKAVHEKLLKKKINHDFIIRPGGHTGRYWNNAIDYQILFFSKFFNK”, the “soluble on expression in E. coli” value is listed as “not soluble”.

On to “MEDFGRQRPYGDGGMQIQPYHGNQGGDFRSYSASYGTRENNIYDVKKEKSIARSKSWGITDPELQRKKRVASYKMYGVEGKVKGSFRNSFRWLKQRYTQVVYGWW”, for which the “soluble on expression in E. coli” value was “not soluble”.

ELYSALANKCCHVGCTKRSLARFC: the “soluble on expression in E. coli” value is “soluble”.
